Source: the Immune Epitope Database (IEDB)

How the values were obtained:
[1] = target: HLA-A*01:01; assay: IEDB peptide-MHC binding, purified MHC/competitive/radioactivity; filed as Kd, often an IC50 or EC50 that approximates it; ≥ and ≤ were set here for values at or beyond the usual limits of such assays
[2] = target: HLA-A*30:02; assay: as above
[3] = target: HLA-B*15:01; assay: as above
[4] = target: HLA-A*68:02; assay: as above
[5] = target: HLA-A*26:01; assay: as above
[6] = target: HLA-B*44:02; assay: as above
[7] = target: HLA-B*44:03; assay: as above
[8] = target: HLA-A*02:03; assay: as above; conditions: source organism: Homo sapiens
[9] = target: HLA-A*02:01; assay: as above
[10] = target: HLA-B*58:01; assay: IEDB peptide-MHC binding, purified MHC/direct/fluorescence; filed as Kd, often an IC50 or EC50 that approximates it; ≥ and ≤ were set here for values at or beyond the usual limits of such assays
[11] = target: HLA-B*57:01; assay: as above
[12] = target: HLA-A*02:06; assay: IEDB peptide-MHC binding, purified MHC/competitive/radioactivity; filed as Kd, often an IC50 or EC50 that approximates it; ≥ and ≤ were set here for values at or beyond the usual limits of such assays; conditions: source organism: Homo sapiens
[13] = target: HLA-B*46:01; assay: IEDB peptide-MHC binding, purified MHC/competitive/fluorescence; filed as Kd, often an IC50 or EC50 that approximates it; ≥ and ≤ were set here for values at or beyond the usual limits of such assays; conditions: source organism: Vibrio vulnificus CMCP6
[14] = target: HLA-B*40:01; assay: IEDB peptide-MHC binding, purified MHC/competitive/radioactivity; filed as Kd, often an IC50 or EC50 that approximates it; ≥ and ≤ were set here for values at or beyond the usual limits of such assays
[15] = target: HLA-A*24:03; assay: IEDB peptide-MHC binding, purified MHC/direct/fluorescence; filed as Kd, often an IC50 or EC50 that approximates it; ≥ and ≤ were set here for values at or beyond the usual limits of such assays
[16] = target: HLA-A*30:01; assay: IEDB peptide-MHC binding, purified MHC/competitive/radioactivity; filed as Kd, often an IC50 or EC50 that approximates it; ≥ and ≤ were set here for values at or beyond the usual limits of such assays
[17] = target: HLA-A*32:01; assay: as above
[18] = target: HLA-A*29:02; assay: as above
[19] = target: HLA-B*15:01; assay: IEDB peptide-MHC binding, purified MHC/competitive/fluorescence; filed as Kd, often an IC50 or EC50 that approximates it; ≥ and ≤ were set here for values at or beyond the usual limits of such assays; conditions: source organism: Human immunodeficiency virus 1
[20] = target: HLA-A*03:01; assay: IEDB peptide-MHC binding, purified MHC/competitive/radioactivity; filed as Kd, often an IC50 or EC50 that approximates it; ≥ and ≤ were set here for values at or beyond the usual limits of such assays
[21] = target: HLA-B*51:01; assay: IEDB peptide-MHC binding, purified MHC/competitive/fluorescence; filed as Kd, often an IC50 or EC50 that approximates it; ≥ and ≤ were set here for values at or beyond the usual limits of such assays; conditions: source organism: Kurkino virus
[22] = target: HLA-B*07:02; assay: IEDB peptide-MHC binding, purified MHC/direct/fluorescence; filed as Kd, often an IC50 or EC50 that approximates it; ≥ and ≤ were set here for values at or beyond the usual limits of such assays; conditions: source organism: Orthohantavirus dobravaense
[23] = target: HLA-A*11:01; assay: IEDB peptide-MHC binding, purified MHC/competitive/radioactivity; filed as Kd, often an IC50 or EC50 that approximates it; ≥ and ≤ were set here for values at or beyond the usual limits of such assays; conditions: source organism: Dengue virus 2 Jamaica/1409/1983
[24] = source organism: Dengue virus 2 Jamaica/1409/1983
[25] = source organism: Vaccinia virus WR
[26] = source organism: Dengue virus 1 Brazil/97-11/1997
[27] = source organism: Orthohantavirus dobravaense
[28] = source organism: Dengue virus 4 Philippines/H241/1956
[29] = source organism: Dengue virus 2 Peru/IQT2913/1996
[30] = source organism: Dengue virus 3 Sri Lanka/1266/2000
[31] = source organism: Vibrio vulnificus YJ016
[32] = source organism: Dengue virus 3 Martinique/1243/1999
[33] = source organism: Mammarenavirus guanaritoense
[34] = source organism: Mammarenavirus choriomeningitidis

Sequence: VSKKEGGAMY
- Kd [1, 24]: 19900 nM
- Kd [2, 24]: ≥ 69700 nM
- Kd [3, 24]: 84.8 nM

Sequence: YMATTILEM
- Kd [3, 25]: 2.17 nM

Sequence: YACKQILHG
- Kd [3, 25]: 2270 nM

Sequence: ETQHGTVLV
- Kd [4, 26]: 2.52 nM
- Kd [5, 26]: 4910 nM

Sequence: GEKALKLSWF
- Kd [6, 26]: 373 nM
- Kd [7, 26]: 135 nM

Sequence: EMKTQLEEL
- Kd ([4]; source organism: Homo sapiens): 284 nM
- Kd [8]: 81.3 nM
- Kd ([9]; source organism: Homo sapiens): ≥ 20800 nM

Sequence: KALIATATW
- Kd [10, 27]: 12.5 nM
- Kd [11, 27]: 25.3 nM

Sequence: AGADTSEVHW
- Kd [6, 28]: 4920 nM

Sequence: RIKQKGILGY
- Kd [2, 29]: 1440 nM
- Kd [3, 29]: 152 nM

Sequence: LLIVSGIFPY
- Kd [1, 30]: 7500 nM
- Kd [5, 30]: 11200 nM
- Kd [2, 30]: ≥ 60000 nM
- Kd [3, 30]: 2.26 nM

Sequence: EMREQHDAQV
- Kd ([4]; source organism: Homo sapiens): 456 nM
- Kd [12]: ≥ 68500 nM

Sequence: FAIGDWEPY
- Kd [13]: 74.1 nM

Sequence: WMSPTYQSW
- Kd [10, 31]: 8.3 nM
- Kd [11, 31]: 62.4 nM

Sequence: DTAWDFGSV
- Kd [4, 32]: 1.5 nM
- Kd [5, 32]: 172 nM

Sequence: WELVDKERAL
- Kd [14, 28]: 24 nM

Sequence: MYLRTIYDL
- Kd ([15]; source organism: Rhodococcus erythropolis): 0.6 nM

Sequence: EENMEVEIW
- Kd [6, 28]: 23.4 nM
- Kd [7, 28]: 81.5 nM

Sequence: LEPPFGDSYI
- Kd [14, 28]: 6420 nM

Sequence: MEDKTHVSSW
- Kd [6, 26]: 82.3 nM
- Kd [7, 26]: 111 nM

Sequence: VTRGAVLTY
- Kd [1, 32]: 3110 nM
- Kd [2, 32]: ≥ 76900 nM
- Kd [3, 32]: 30 nM

Sequence: SVSGTFVAEF
- Kd [1, 33]: ≥ 45200 nM
- Kd [16, 33]: ≥ 40000 nM
- Kd [17, 33]: 4410 nM
- Kd [18, 33]: 9060 nM
- Kd [5, 33]: 3070 nM
- Kd [2, 33]: 7910 nM

Sequence: LVGKLNWASQIY
- Kd [19]: 2210 nM

Sequence: ITQLMPFGC
- Kd ([9]; source organism: Homo sapiens): 6290 nM

Sequence: GLRDCTMLV
- Kd ([9]; source organism: hepatitis C virus genotype 1a): 421 nM

Sequence: KEVSETQHG
- Kd [6, 32]: 6770 nM

Sequence: GLDLQPCIDL
- Kd ([4]; source organism: Homo sapiens): ≥ 60000 nM

Sequence: VSGKLIHEW
- Kd ([11]; source organism: dengue virus type 3): 43.5 nM

Sequence: ITPRSPSVEV
- Kd [4, 28]: 575 nM

Sequence: KLRIKGMSY
- Kd [16, 28]: 18.6 nM
- Kd [20, 28]: 8.36 nM
- Kd [2, 28]: 79.6 nM
- Kd [3, 28]: 38.5 nM

Sequence: EVAETQHGTV
- Kd [4, 26]: 1.53 nM

Sequence: EIFSMMVSSF
- Kd [1, 34]: 7590 nM
- Kd [16, 34]: 940 nM
- Kd [17, 34]: 1290 nM
- Kd [18, 34]: 1370 nM
- Kd [5, 34]: 3.79 nM
- Kd [2, 34]: 13200 nM

Sequence: IETLMLLAL
- Kd [6, 26]: 1340 nM
- Kd [14, 26]: 10.7 nM

Sequence: LPTRCRLEI
- Kd [21]: ≥ 20000 nM
- Kd [22]: 3.9 nM

Sequence: ATMANEMGFL
- Kd [4, 24]: 68.4 nM

Sequence: TIMAAILAY
- Kd [1, 24]: ≥ 26600 nM
- Kd [20, 24]: 28.8 nM
- Kd [23]: 164 nM
- Kd [5, 24]: 156 nM
- Kd [2, 24]: 117 nM
- Kd [3, 24]: 73.3 nM

Sequence: LERAADVKW
- Kd [6, 24]: 130 nM
- Kd [7, 24]: 214 nM

Sequence: NMALKKIREL
- Kd ([4]; source organism: Homo sapiens): ≥ 60000 nM

Sequence: IYTLEYDGF
- Kd ([15]; source organism: Mycobacterium tuberculosis): 74.8 nM

Sequence: SQHNYRQGY
- Kd [2, 28]: 23.5 nM
- Kd [3, 28]: 3.47 nM
